Data taken from patent publication US20050032681A1 (TEMPLE UNIV OF THE COMMONWEALTH SYSTEM OF HIGHER EDUCATION …, published 2005).
Substitutions are numbered along the chain they refer to. Numbers in names are those of the source.

T1: human neutrophil elastase (human, UniProt P08246 30-247, limits assumed)
T1 sequence (looked up): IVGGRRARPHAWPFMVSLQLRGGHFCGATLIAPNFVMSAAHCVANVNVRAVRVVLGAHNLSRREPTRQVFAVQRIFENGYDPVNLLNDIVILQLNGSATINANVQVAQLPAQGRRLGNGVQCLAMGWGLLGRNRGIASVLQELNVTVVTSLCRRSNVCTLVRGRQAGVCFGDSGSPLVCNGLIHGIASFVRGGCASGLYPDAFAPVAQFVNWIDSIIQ

T2: Human Cathepsin G (human, UniProt P08311 21-244)
T2 sequence (looked up): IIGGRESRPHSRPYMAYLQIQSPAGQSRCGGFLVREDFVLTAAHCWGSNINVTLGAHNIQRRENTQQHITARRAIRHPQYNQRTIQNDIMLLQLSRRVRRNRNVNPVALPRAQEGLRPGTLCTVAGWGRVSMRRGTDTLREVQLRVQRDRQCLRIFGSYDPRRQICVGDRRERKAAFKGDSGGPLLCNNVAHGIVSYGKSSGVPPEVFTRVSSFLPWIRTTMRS

B1: 5EA modified ATIII (on human ATIII.N135A background) (other)
chain: HGSPVDICTAKPRDIPMNPMCIYRSPEKKATEDEGSEQKIPEATNRRVWELSKANSRFATTFYQHLADSKNDNDNIFLSPLSISTAFAMTKLGACNDTLQQLMEVFKFDTISEKTSDQIHFFFAKLNCRLYRKAAKSSKLVSANRLFGDKSLTFNETYQDISELVYGAKLQPLDFKENAEQSRAAINKWVSNKTEGRITDVIPSEAINELTVLVLVNTIYFKGLWKSKFSPENTRKELFYKADGESCSASMMYQEGKFRYRRVAEGTQVLELPFKGDDITMVLILPKPEKSLAKVEKELTPEVLQEWLDELEEMMLVVHMPRFRIEDGFSLKEQLQDMGLVDLFSPEKSKLPGIVAEGRDDLYVSDAFHKAFLEVNEEGSEAAASTAVEAAGRSLNPNRVTFKANRPFLVFIREVPLNTIIFMGRVANPCVK
notes: Recombinant, baculovirus/Sf9, N135A background; also called AT.5EA
B2: F2A′ modified ATIII (on human ATIII.N135A background) (other)
chain: B1 chain with A387Q, V388T, E389P, A390P, A391N
B3: 13 A modified ATIII (on human ATIII.N135A background) (other)
chain: B1 chain with A390G
notes: Recombinant, baculovirus/Sf9, N135A background; also called AT.13.A
B4: Bb.C modified ATIII (on human ATIII.N135A background) (other)
chain: B1 chain with T386E, A387E, V388G, A391S
modifications: Sf9-expressed glycoprotein: N-glycans expected at Asn 96, 155 and 192 (written N); Asn135 site removed by N135A.
B5: 13.D modified ATIII (on human ATIII.N135A background) (other)
chain: B1 chain with V388L, A390G
notes: Recombinant, baculovirus/Sf9, N135A background; also called AT.13.D
B6: Aa modified ATIII (on human ATIII.N135A background) (other)
chain: B1 chain with V388E, E389G, A390G, A391G
notes: Recombinant, baculovirus/Sf9, N135A background; also called AT.Aa
B7: LEAI modified ATIII (on human ATIII.N135A background) (other)
chain: B1 chain with V388L, A391I
notes: substitutions derived against S T A V V I A G R with the numbering of footnote c; also called AT3.LEAI
B8: 13.C modified ATIII (on human ATIII.N135A background) (other)
chain: B1 chain with A387E, V388L, A390G
notes: Recombinant, baculovirus/Sf9, N135A background; also called AT.13.C
B9: FF modified ATIII (on human ATIII.N135A background) (other)
chain: B1 chain with E389F, A390F
notes: Recombinant, baculovirus/Sf9, N135A background; also called AT.FF
B10: 7EVEA modified ATIII (on human ATIII.N135A background) (other)
chain: B1 chain with A387E
notes: Recombinant, baculovirus/Sf9, N135A background; also called AT.7EVEA
B11: Bb.D modified ATIII (on human ATIII.N135A background) (other)
chain: B1 chain with T386E, A387E, V388G, A390G, A391S
notes: Recombinant, baculovirus/Sf9, N135A background; also called AT.Bb.D
B12: 13.B modified ATIII (on human ATIII.N135A background) (other)
chain: B1 chain with A387E, A390G
notes: Recombinant, baculovirus/Sf9, N135A background; also called AT.13.B
B13: Bb modified ATIII (on human ATIII.N135A background) (other)
chain: B1 chain with A387E, V388G, E389F, A390F, A391S
notes: Recombinant, baculovirus/Sf9, N135A background; also called AT.Bb; Bb mutant
B14: Bb.A modified ATIII (on human ATIII.N135A background) (other)
chain: B1 chain with A387E, V388G, A391S
notes: Recombinant, baculovirus/Sf9, N135A background; also called AT.Bb.A
B15: Bb.B modified ATIII (on human ATIII.N135A background) (other)
chain: B1 chain with A387E, V388G, A390G, A391S
notes: Recombinant, baculovirus/Sf9, N135A background; also called AT.Bb.B

How the values were obtained:
human factor Xa = biological target: T3, human factor Xa (human, UniProt P00742 41-179; P00742 235-488, limits assumed); assay: pseudo-first-order factor Xa inhibition kinetics, residual activity with S-2765, 25 C, polybrene
T3 construct: that the active enzyme has two chains is from general knowledge
Method: (§1) Forty μL aliquots of ATIII samples at varying concentrations (450 nM, 300 nM, 150 nM) in PNE-PEG plus 50 μL polybrene (to neutralize any contaminating heparin) were preloaded into quadruplicate wells of a low-binding 96-well assay plate (Corning). The plate was maintained at 25° C., and 20 μL aliquots of 30 nM human thrombin or 15 nM human factor Xa were added to each of the four wells at successive 5 minute intervals. Reactions were quenched 5 minutes after addition of enzyme to the last of the wells by the adding 100 μL of 1.5 mM chromogenic substrate (S-2238 for thrombin; S-2765 for factor Xa). Residual enzyme activity was measured on a BioTek ELS11X kinetic plate reader controlled by a Macintosh SE with Deltasoft software. Initial rates of chromogenic substrate cleavage were monitored at 405 nm.

[1] = biological target: T1, human neutrophil elastase; assay: cell-based or functional assay
human α-thrombin = human α-thrombin (human, UniProt P00734 328-363; P00734 364-622); assay: pseudo-first-order thrombin inhibition kinetics, residual activity with S-2238, 25 C, polybrene
Method: as §1

Human Cathepsin G = biological target: T2, Human Cathepsin G; assay: cell-based or functional assay

T3 sequence (P00742 41-179 limits assumed, chain 1 of 2): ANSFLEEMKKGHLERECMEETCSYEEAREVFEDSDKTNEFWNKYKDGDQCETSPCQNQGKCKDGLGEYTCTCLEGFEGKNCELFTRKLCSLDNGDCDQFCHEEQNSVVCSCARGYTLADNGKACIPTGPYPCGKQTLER
T3 sequence (P00742 235-488 limits assumed, chain 2 of 2): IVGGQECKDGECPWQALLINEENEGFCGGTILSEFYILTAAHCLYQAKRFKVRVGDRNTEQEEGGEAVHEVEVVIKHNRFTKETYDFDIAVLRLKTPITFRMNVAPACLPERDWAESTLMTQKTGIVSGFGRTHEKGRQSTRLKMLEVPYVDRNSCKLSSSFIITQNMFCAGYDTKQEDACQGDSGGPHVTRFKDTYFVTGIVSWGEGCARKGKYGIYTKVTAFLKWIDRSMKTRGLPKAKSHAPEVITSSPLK

Binder | kapp (apparent second-order rate constant of association) (human factor Xa) [M⁻¹ s⁻¹] | HNE resistance T1/2, min [1] [min] | kapp (apparent second-order rate constant of association) (human α-thrombin) [M⁻¹ s⁻¹] | Cathepsin G resistance T1/2, min (Human Cathepsin G) [min]
B1 | 3100 | 3.2 | 600 | 
B2 |  | 2.6 |  | 
B3 | 500 | 2.1 | 200 | 
B4 |  | 437 |  | 
B5 | 3300 | 2.6 |  | 
B6 | 400 | 9.1 | 400 | 
B7 | 7000 | 2.8 | 3600 | 6.1
B8 | 5100 | 10.1 |  | 
B9 | 3000 | < 2.5 | 1400 | 
B10 | 4800 | 5.6 | 600 | 
B11 |  | > 45 | 100 | 
B12 | 2800 | 7.6 |  | 
B13 | 4500 | 15.8 | 3600 | 1.4
B14 | 6200 | 27.4 | 500 | > 45
B15 | 700 | 44.8 |  | 16.2
